Reference: publication PMC2944802, “CpG-Methylation Regulates a Class of Epstein-Barr Virus Promoters”

Biological target: Zta (BZLF1:Strep/FLAG) (Epstein-Barr virus, UniProt P03206 149-245)
Assay: EMSA; apparent, Hill fit; […]; pH and temperature not stated
Conditions: protein: recombinant; tags: tandem StrepII/FLAG; chain copies: 2; label: 32P 5' end; blunt

Zta (BZLF1:Strep/FLAG), sequence (P03206 149-245): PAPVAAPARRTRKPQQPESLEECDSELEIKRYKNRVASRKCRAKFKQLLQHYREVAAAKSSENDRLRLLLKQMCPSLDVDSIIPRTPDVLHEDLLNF

| Binder | Kd |
| --- | --- |
| BRLF1 meZRE3 (dsDNA, 5mC at positions 12 and 14 of strand 1; bottom-strand methylation not shown in material) DNA 1: CAGTCAAAATTCGCGATGCTATAAA DNA 2: TTTATAGCATCGCGAATTTTGACTG | 0.135 ± 0.045 µM |
| oriLyt ZRE5 (dsDNA) DNA 1: TTGTCACCTTTGCACATTTGGTCAG DNA 2: CTGACCAAATGTGCAAAGGTGACAA | 0.0377 ± 0.0043 µM |
| BRLF1 ZRE3 (dsDNA) DNA 1: CAGTCAAAATTCGCGATGCTATAAA DNA 2: TTTATAGCATCGCGAATTTTGACTG | 1.19 ± 0.227 µM |
| BBLF4 meZRE A (dsDNA, 5mC at position 13 of strand 1; bottom-strand methylation not shown in material) DNA 1: ATGACTCGTGTGCGAGCCGGTTTCG DNA 2: CGAAACCGGCTCGCACACGAGTCAT | 0.0163 ± 0.0026 µM |
| BRLF1 meZRE2 (dsDNA, 5mC at position 14 of strand 1; bottom-strand methylation not shown in material) DNA 1: CTAAGCTTATGAGCGATTTTATCAC DNA 2: GTGATAAAATCGCTCATAAGCTTAG | 0.0127 ± 0.0082 µM |
| BMLF1 ZRE AP-1 (dsDNA) DNA 1: GCGAAGCACTGACTCATGAAGGTGA DNA 2: TCACCTTCATGAGTCAGTGCTTCGC | 0.0408 ± 0.023 µM |
| BBLF4 ZRE B (dsDNA) DNA 1: CTCTCCTATGAGCGTTATGTGGACT DNA 2: AGTCCACATAACGCTCATAGGAGAG | 0.484 ± 0.244 µM |
| BMRF1 ZRE A (dsDNA) DNA 1: TTGGTGGATGTGCGAGCCATAAAGC DNA 2: GCTTTATGGCTCGCACATCCACCAA | 0.328 ± 0.166 µM |
| BHLF1 ZRE2 (dsDNA) DNA 1: TTTAAGGTTTGCTCAGGAGTGGGG DNA 2: CCCCACTCCTGAGCAAACCTTAAA | 0.0916 ± 0.0385 µM |
| BRLF1 ZRE2 (dsDNA) DNA 1: CTAAGCTTATGAGCGATTTTATCAC DNA 2: GTGATAAAATCGCTCATAAGCTTAG | 0.113 ± 0.0119 µM |
| BBLF4 ZRE A (dsDNA) DNA 1: ATGACTCGTGTGCGAGCCGGTTTCG DNA 2: CGAAACCGGCTCGCACACGAGTCAT | 0.219 ± 0.041 µM |
| BBLF4 meZRE B (dsDNA, 5mC at position 13 of strand 1; bottom-strand methylation not shown in material) DNA 1: CTCTCCTATGAGCGTTATGTGGACT DNA 2: AGTCCACATAACGCTCATAGGAGAG | 0.018 ± 0.0042 µM |
| BMRF1 meZRE A (dsDNA, 5mC at position 13 of strand 1; bottom-strand methylation not shown in material) DNA 1: TTGGTGGATGTGCGAGCCATAAAGC DNA 2: GCTTTATGGCTCGCACATCCACCAA | 0.0202 ± 0.0125 µM |
